Test results as given in the supplement of paper PMC9732359.
± gives the uncertainty stated by the source.

Experiment: protein stability index of a GFP-peptide fusion (yeast GPS) (PSI 1-4); higher = more stable; sorted into four equal gates, so the index is relative within each strain
In short: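 Plasmids in a pooled yeast library fused tiled 17-residue yeast protein peptides downstream of GFP and also expressed Cherry. Mid-log cultures grown without leucine were sorted into four equal gates by GFP/Cherry fluorescence ratio. Each gate's plasmids were PCR-amplified and Illumina-sequenced, and reads were matched to strains by barcodes. The protein stability index is derived by multiplying each gate's read frequency by its gate number and summing the results.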

Sequence | protein stability index (doa10∆) | protein stability index (pdr5∆) | protein stability index (san1∆) | protein stability index (ubr1∆)
IDSFFLYVLPSFNIPRL [YMR129W/POM152] | 1.77 ± 0.05 | 1.57 ± 0.038 | 1.64 ± 0.093 | 1.26 ± 0.031
SSLSFGPENALNVYHYF [YJL039C/NUP192] | 1.94 ± 0.031 | 2.11 ± 0.038 | 2.04 ± 0.05 | 2.67 ± 0.029
RPFGVALLIAGHDADDG [PUP2] | 1.66 ± 0.16 | 2.66 ± 0.21 |  | 2.6 ± 0.14
HLGCVPIGEAGDFGGWF [RIP1] | 2.81 ± 0.12 | 3.08 ± 0.11 | 2.7 ± 0.11 | 3.06 ± 0.14
EIVSDVKVVDAGNKVGQ [RPP0] |  | 3.59 ± 0.2 |  | 
NIQGITKPAIRRLARRG [HHF1] | 3.27 ± 0.1 | 3.24 ± 0.093 | 2.89 ± 0.092 | 3.35 ± 0.066
GVATKDKFFTLSAENIE [SCL1] |  |  |  | 3.28 ± 0.25
WSSEFAKWAPTLRTISF [SNF2] | 2.36 ± 0.057 | 2.41 ± 0.043 | 2.78 ± 0.063 | 2.47 ± 0.056
ITVRYWLNGKMDSKGKI [RGR1] | 3.27 ± 0.14 | 3.51 ± 0.15 | 3.31 ± 0.23 | 
LCKTKMVCETDVPSEDD [RPO21] | 2.99 ± 0.071 | 3 ± 0.093 | 3.25 ± 0.074 | 2.52 ± 0.067
LSDNAKTLHSQMMSKGI [RPC34] | 3.19 ± 0.18 | 3.32 ± 0.098 | 3.26 ± 0.071 | 3.11 ± 0.056
RGNIKVMFATNRPNTLD [RPT1] | 2.91 ± 0.079 | 3.05 ± 0.088 | 3.02 ± 0.063 | 2.98 ± 0.085
HSRILPKKALKVKAGVR [RRP43] | 1.73 ± 0.046 | 1.63 ± 0.054 | 1.57 ± 0.082 | 1.6 ± 0.032
AGAGEANGTVVSFIKNG [MTR3] | 1.79 ± 0.16 | 2.53 ± 0.2 |  | 2.21 ± 0.11
SDPAAKKTATEPKQKAN [SRP21] | 3.21 ± 0.11 | 3.04 ± 0.09 | 3.32 ± 0.046 | 3.01 ± 0.11
EDEEEFSIFNYFKMFPA [RPC34] | 3.27 ± 0.19 | 2.2 ± 0.1 |  | 2.46 ± 0.2
GGQIAHILFQNNPDMMI [ROX3] | 2.54 ± 0.041 | 2.63 ± 0.046 | 2.59 ± 0.052 | 2.97 ± 0.046
VPFIIAAMVIMHLMALH [COB] | 2.08 ± 0.055 | 1.31 ± 0.055 | 1.79 ± 0.16 | 1.43 ± 0.041
VLEDCRHLPMYTEFIDS [ITC1] | 2.34 ± 0.1 | 2.71 ± 0.075 | 2.77 ± 0.12 | 2.99 ± 0.066
LNFSTTAPANTTDANGS [MED2] | 2.06 ± 0.061 | 2.08 ± 0.051 | 2.58 ± 0.056 | 2.78 ± 0.057
KWQTLIEANVTVKTSDD [RPS1A] | 1.42 ± 0.05 | 1.62 ± 0.044 | 1.61 ± 0.078 | 1.67 ± 0.037
EEHHEEEPSRVDPEQEA [RPT4] | 3.09 ± 0.082 | 3.28 ± 0.094 | 3.14 ± 0.052 | 3.26 ± 0.064
TRSLKYGKLRNGMFCQV [RRP4] | 1.42 ± 0.081 | 1.11 ± 0.1 | 1.09 ± 0.13 | 1.07 ± 0.12
INIQSFKDVEHISFNFS [BRR2] | 2.67 ± 0.081 | 2.79 ± 0.13 | 2.67 ± 0.092 | 2.75 ± 0.061
SHGNPVVDFLKRNGSTL [FAS1] | 3.02 ± 0.052 | 3.17 ± 0.049 | 3.1 ± 0.043 | 3.11 ± 0.038
VSKEQFLKDADVECIKA [YJL039C/NUP192] | 1.45 ± 0.043 | 1.61 ± 0.059 | 2.17 ± 0.079 | 1.89 ± 0.042
LLHETNDSFKGLITNKM [PRP8] | 3 ± 0.16 | 2.8 ± 0.071 | 3.06 ± 0.12 | 3.24 ± 0.12

Sequence | protein stability index (doa10∆) | protein stability index (pdr5∆) | protein stability index (san1∆) | protein stability index (ubr1∆)
TYKYPSLKGVDPKFRRN [RPL29] | 3.03 ± 0.11 | 2.88 ± 0.25 | 2.97 ± 0.12 | 3.12 ± 0.09
ATSVESVDIGVETILSG [FAS2] | 2.93 ± 0.084 | 2.9 ± 0.089 | 2.13 ± 0.089 | 3.1 ± 0.069
DVYSPEKGSWEQLSPQD [BRR2] | 3.15 ± 0.15 |  | 2.47 ± 0.24 | 3.34 ± 0.25
HLCSGILSSVNRTVLLK [SRB8] | 1.42 ± 0.073 | 1.67 ± 0.15 | 1.41 ± 0.17 | 1.67 ± 0.047
ATQMTLNTFHFAGVASK [RPO21] | 1.89 ± 0.11 | 1.9 ± 0.076 | 2 ± 0.22 | 2.32 ± 0.14
RKNFKMGPLYQNFAEFM [IRR1] | 1.33 ± 0.037 | 1.54 ± 0.06 | 1.72 ± 0.078 | 1.67 ± 0.038
SYQPMYQRPMQVQGQQQ [SSN3] | 1.46 ± 0.043 | 1.71 ± 0.06 | 1.92 ± 0.11 | 1.89 ± 0.054
YACISSRPGQSGRCDGY [RPS8A] | 3.02 ± 0.1 | 3.21 ± 0.12 | 3.35 ± 0.097 | 3.28 ± 0.046
GSSNKAVVQTVKGLLNT [YJL039C/NUP192] | 3.27 ± 0.14 | 3.13 ± 0.11 | 2.59 ± 0.11 | 3.07 ± 0.098
AQKYASIVGVDLSSAAS [FAS2] | 2.13 ± 0.069 | 2.21 ± 0.082 | 1.66 ± 0.12 | 1.75 ± 0.062
RYIWRSLKDLSSLRNQE [RPN3] | 2.77 ± 0.14 |  | 2.85 ± 0.094 | 
GLGVNRRILAAAAAAAA [SSN3] | 1.44 ± 0.07 | 1.52 ± 0.083 | 1.08 ± 0.2 | 1.95 ± 0.069
GRIPLHWSVSFQAHEIT [NAS6] | 2.87 ± 0.057 | 2.84 ± 0.056 | 2.48 ± 0.073 | 2.69 ± 0.037
FASNKKINDESSIDKKS [YML103C/NUP188] | 2.5 ± 0.066 | 2.92 ± 0.073 | 2.64 ± 0.068 | 3.14 ± 0.067
HIFQVEYALEAVKRGTC [PRE6] | 2.76 ± 0.15 | 2.75 ± 0.13 | 2.54 ± 0.19 | 2.77 ± 0.19
WDLVDERTKQRTAKAYL [PRP8] | 3.18 ± 0.12 | 3.6 ± 0.23 | 3.09 ± 0.074 | 3.1 ± 0.1
TQQPGTNSHYNNTNTDN [SNF2] | 3.17 ± 0.046 | 3.26 ± 0.04 | 3.21 ± 0.036 | 3.204 ± 0.028
TFLESINGINWRFHTPQ [SIN4] | 2.4 ± 0.054 | 1.86 ± 0.048 | 1.93 ± 0.12 | 2.02 ± 0.043
NVETYEQILQWVTEVLG [BRR2] | 1.83 ± 0.065 | 1.75 ± 0.06 | 1.77 ± 0.089 | 2 ± 0.082
GNDFKFNYQGDELVLNF [REC8] | 3.34 ± 0.078 | 3.42 ± 0.083 | 3.34 ± 0.053 | 3.17 ± 0.047
LIIVTRKNYMHVKNFGF [YML031W/NDC1] | 1.22 ± 0.042 | 1.52 ± 0.048 | 1.51 ± 0.1 | 1.87 ± 0.04
ELIIDPLFKKALVDFDE [BRN1] | 3.45 ± 0.16 | 2.98 ± 0.14 | 3.01 ± 0.24 | 3.29 ± 0.13
PIIATYGNRAEQFLETD [SRP68] | 2.09 ± 0.09 | 2.48 ± 0.063 | 2.26 ± 0.14 | 2.72 ± 0.084
SGEPIIAATQDFITGSY [RPO31] | 3.36 ± 0.1 | 3.3 ± 0.095 | 3.13 ± 0.12 | 3.18 ± 0.039
YPNEVLKFNHGNYSHLM [REC8] | 2.7 ± 0.13 | 2.65 ± 0.059 | 2.76 ± 0.059 | 2.88 ± 0.061
KLVRDAFALAKEKAPTI [RPT5] | 2.56 ± 0.072 | 2.49 ± 0.09 | 2.94 ± 0.083 | 3.08 ± 0.083
